# Reference: patent US20250325718A1 (Janssen / Centocor, published 2025)
# B1: KL2B30 (Fab) (Fab, V domains shown)
# VH: QVQLQESGPGLVKPSETLSLTCTVSGGSISSYYWSWIRQPPGKGLEWIGYIYYSGSTNYNPSLKSRVTISVDTSKNQFSLKLSSVTAADTAVYYCAGTTIFGVVTPNFYYGMDVWGQGTTVTVSS
# VL: DIQMTQSPSFLSASVGDRVTITCRASQGISSYLAWYQQKPGKAPKFLIYAASTLQSGVPSRFSGSGSGTEFTLTISSLQPEDFATYYCQQLNSYPLTFGGGTKVEIK
# B2: KL2B494 (Fab) (Fab, V domains shown)
# VH: QVQLVESGGGLVQPGGSLRLSCAASGFTFSHYAMSWVRQAPGKGLEWVSTIGGSGGSTYYADSVKGRFTISRDNSKNTLYLQMNSLRAEDTAVYYCAKPHIVMVTALLYDGMDVWGQGTMVTVSS
# VL: SSELTQPPSVSVAPGQTARITCGGNNIGSKSVHWYQQKPGQAPVLVVYDDSDRPSGIPERFSGSNSGNTATLTISRVEAGDEADYYCQVWDSSSDHVVFGGGTKLTVL
# B3: KL2B359 (scFv-LH-Fc) (Fc fusion)
# scFv: EIVLTQSPATLSLSPGERATLSCRASESVEYFGTSLMHWYQQKPGQPPRLLIYAASNVESGIPARFSGSGSGTDFTLTISSVEPEDFAVYFCQQTRKVPYTFGGGTKVEIKGGSEGKSSGSGSESKSTGGSQVQLQESGPGLVKPSQTLSLTCTVSGNSITSDYAWNWIRQFPGKRLEWIGYISYSGSTTYNPSLKSRVTISRDTSKNQFSLKLSSVTAADTAVYYCATGYYYGSGFWGQGTLVTVSS
# notes: scFv (VL-linker-VH) fused to an Fc; also called scFv20; KL2B359_LH; not shown: The hinge and Fc of the scFv-LH-Fc
# B4: KL2B467 (Fab) (Fab, V domains shown)
# VH: QVQLVESGGGVVQPGRSLRLSCAASGFTFSYYGMHWVRQAPGKGLEWVAFISYDGSNKYYADSVKGRFTISRDNSKNTLYLQMNSLRAEDTAVYYCAHLPYSGSYWAFDYWGQGTQVTVSS
# VL: QSVLTQPPSVSVAPGQTASITCGGDNIGSKSVHWYQQKPGQAPVLVVYDNSDRPSGIPERFSGSNSGTTATLTISRVEAGDEADYYCQVWDSSSDHPVVFGGGTKVTV
# B5: KL2B242 (Fab) (Fab, V domains shown)
# VH: QVQLQESGPGLVKPSETLSLTCTVSGGSISSYYWSWLRQPAGSGLEWIGRLYVSGFTNYNPSLKSRVTLSLDPSRNQLSLKLSSVTAADTAVYYCAGDSGNYWGWFDPWGQGTLVTVSS
# VL: SYELTQPPSVSVSPGETASITCSGDQLGENYACWYQQKPGQSPVLVIYQDSKRPSGIPERFSGSNSGNTATLTISGTQALDEADYYCQAWDNSIVVFGGGTKLTVL
# B6: KL2B53 (Fab) (Fab, V domains shown)
# VH: EVQLVESGGGVVQPGRSLRLSCVASGFTFSSYDIHWVRQAPGKGLEWVAIISYDGSKKDYTDSVKGRFTISRDNSKNTLYLQMDSLRVEDSAVYSCARESGWSHYYYYGMDVWGQGTMVTVSS
# VL: DIVMTQSPSSLSASVGDRVTITCRASQDISNYLAWYQQKPGKVPKFLIYAASTLHSGVPSRFSGSGSGTDFTLTISSLQPEDVATYYCQKYNSAPYTFGQGTRLEIK
# B7: KL2B413 (scFv-LH-Fc) (Fc fusion)
# scFv: EIVLTQSPSFLSASVGDRVTITCRASQGISSYLSWYQQKPGKAPKLLIYATSTLQSGVPSRFSGSGSGTEFTLTISSLQPEDFATYYCQQLNSYPRTFGQGTKVEIKGGSEGKSSGSGSESKSTGGSEVQLVESGGGLVQPGGSLRLSCAASGFTFSSYWMTWVRQAPGKGLEWVANIKQDGSERYYVDSVKGRFTISRDNAKNSLYLQMNSLRAEDTAVYYCARDQNYDILTGHYGMDVWGQGTTVTVSS
# notes: scFv (VL-linker-VH) fused to an Fc; also called scFv18; KL2B413_LH; not shown: The hinge and Fc of the scFv-LH-Fc
# Target: T1, Kallikrein related peptidase 2 (hK2), soluble human protein (human, UniProt P20151 19-261)
# T1 construct: the stated signal peptide (residues 1-18) is left out, the pro-peptide (19-24) is kept; also called KLK2; kallikrein-2
# T1 sequence (P20151 19-261): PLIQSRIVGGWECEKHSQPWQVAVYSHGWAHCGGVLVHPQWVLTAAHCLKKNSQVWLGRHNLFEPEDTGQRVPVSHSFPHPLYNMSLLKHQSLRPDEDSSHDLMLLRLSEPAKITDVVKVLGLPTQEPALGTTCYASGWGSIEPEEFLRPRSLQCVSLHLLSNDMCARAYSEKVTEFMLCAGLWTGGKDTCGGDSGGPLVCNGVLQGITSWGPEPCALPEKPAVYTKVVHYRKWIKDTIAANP
# Assay: SPR, antibody captured on anti-Fc chip, soluble hK2 injected, 1:1 Langmuir fit
# Experimental: (§1) Affinity of selected hK2 antibodies for soluble hK2 was measured by surface plasmon resonance (SPR). […] Antibodies were captured on a sensor chip coated with an anti-Fc antibody followed by injection of soluble hK2 at various concentrations and specified association and dissociation times. Post dissociation, the surface was regenerated with an appropriate solution to prepare for the next interaction. Kinetic information (on-rate and off-rate constants) were extracted by fitting sensorgrams to the 1:1 Langmuir model. Binding affinity (KD) are reported as the ratio of rate constants (koff/kₒₙ).
row,Binder,Kd
1,B1,0.46 nM
2,B2,0.053 nM
3,B3,0.7 to 1 nM
4,B4,0.078 nM
5,B5,0.04 nM
6,B6,0.08 nM
7,B7,34.3 nM

# Target: T1, Kallikrein related peptidase 2 (hK2), …
# Assay: SPR, sentence summing up Table 14
# Experimental: as §1
row,Binder,Kd
1,B1,< 0.5 nM
2,B2,< 0.5 nM
3,B4,< 0.5 nM
4,B5,< 0.5 nM
5,B6,< 0.5 nM
